From PMC1084328 (Nucleic Acids Research, 2005)
Read-outs that look alike come from different tables or passages of the source.

Experiments:
[1] = biological target: T1, RecN (Bacillus subtilis, UniProt P17894); experiment: EMSA, nucleotide-dependent RecN-ssDNA complex; format: binding
T1 sequence (P17894 1-576): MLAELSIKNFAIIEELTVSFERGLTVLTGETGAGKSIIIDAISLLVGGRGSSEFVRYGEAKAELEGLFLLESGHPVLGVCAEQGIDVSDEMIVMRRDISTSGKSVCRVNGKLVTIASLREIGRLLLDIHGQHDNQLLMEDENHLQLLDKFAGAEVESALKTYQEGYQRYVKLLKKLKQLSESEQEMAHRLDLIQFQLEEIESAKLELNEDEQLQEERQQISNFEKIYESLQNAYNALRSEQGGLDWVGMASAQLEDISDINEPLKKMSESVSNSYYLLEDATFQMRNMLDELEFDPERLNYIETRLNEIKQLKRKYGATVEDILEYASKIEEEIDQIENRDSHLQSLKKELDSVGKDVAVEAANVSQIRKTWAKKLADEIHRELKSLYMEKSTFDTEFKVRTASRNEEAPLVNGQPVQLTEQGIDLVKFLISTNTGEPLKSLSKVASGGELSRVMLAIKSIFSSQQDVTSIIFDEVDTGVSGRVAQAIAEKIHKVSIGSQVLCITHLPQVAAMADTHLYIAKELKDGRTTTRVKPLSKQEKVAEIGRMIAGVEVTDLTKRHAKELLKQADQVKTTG

[2] = biological target: T2, RecN, high-S gradient fraction 1 (presumed octamer) (Bacillus subtilis, UniProt P17894 1-576); experiment: EMSA
T2 sequence: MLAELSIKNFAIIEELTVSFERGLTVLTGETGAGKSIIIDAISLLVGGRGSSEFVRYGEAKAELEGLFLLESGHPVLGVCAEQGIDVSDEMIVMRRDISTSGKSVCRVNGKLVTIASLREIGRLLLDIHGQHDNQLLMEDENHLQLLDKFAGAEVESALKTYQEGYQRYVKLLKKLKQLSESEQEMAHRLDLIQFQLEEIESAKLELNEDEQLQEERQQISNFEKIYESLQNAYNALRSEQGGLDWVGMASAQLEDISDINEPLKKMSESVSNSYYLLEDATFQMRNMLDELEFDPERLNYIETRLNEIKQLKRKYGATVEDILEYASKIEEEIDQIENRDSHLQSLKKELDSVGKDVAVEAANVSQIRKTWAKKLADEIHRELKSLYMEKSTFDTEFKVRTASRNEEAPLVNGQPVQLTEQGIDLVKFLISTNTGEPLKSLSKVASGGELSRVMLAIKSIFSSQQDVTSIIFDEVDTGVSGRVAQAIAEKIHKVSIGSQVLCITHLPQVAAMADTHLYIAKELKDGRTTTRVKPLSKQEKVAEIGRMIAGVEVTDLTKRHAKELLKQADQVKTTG

[3] = biological target: T3, RecN (Bacillus subtilis, UniProt P17894 1-576); experiment: EMSA
T3 sequence: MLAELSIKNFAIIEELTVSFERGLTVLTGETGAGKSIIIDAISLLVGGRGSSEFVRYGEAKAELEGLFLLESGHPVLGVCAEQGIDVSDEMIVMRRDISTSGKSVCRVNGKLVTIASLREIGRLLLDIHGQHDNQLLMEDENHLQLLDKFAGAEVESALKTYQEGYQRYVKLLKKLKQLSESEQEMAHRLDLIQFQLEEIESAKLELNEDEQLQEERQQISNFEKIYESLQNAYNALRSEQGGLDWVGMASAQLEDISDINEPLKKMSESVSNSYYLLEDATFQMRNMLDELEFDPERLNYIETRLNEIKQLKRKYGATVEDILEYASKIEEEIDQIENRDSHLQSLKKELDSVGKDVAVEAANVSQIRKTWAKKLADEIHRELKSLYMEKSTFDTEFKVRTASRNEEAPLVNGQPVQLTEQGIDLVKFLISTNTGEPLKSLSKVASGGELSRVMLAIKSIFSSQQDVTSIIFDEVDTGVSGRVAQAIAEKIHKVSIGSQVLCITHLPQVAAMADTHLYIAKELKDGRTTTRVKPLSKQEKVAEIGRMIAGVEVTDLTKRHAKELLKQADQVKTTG

[4] = biological target: T3, RecN; experiment: EMSA; remark: listed apart in the source
[5] = biological target: T3, RecN; experiment: EMSA; remark: listed apart in the source

## Nc1ncnc2c1ncn2[C@H]1C[C@H](O)[C@@H](COP(=O)(O)OP(=O)(O)OP(=O)(O)O)O1 [dATP]
[1]; labelled ssDNA60 1 nM, RecN 10 nM, 2 mM MgCl2, pH 7.5, 2% PEG-6000, 37 °C, dATP 1 mM
  EMSA, nucleotide-dependent RecN-ssDNA complex (CII/CIII) assembly: also when ADP or dATP was present CIII and CII were formed

## Nc1ncnc2c1ncn2[C@@H]1O[C@H](COP(=O)(O)OP(=O)(O)OP(O)(O)=S)[C@@H](O)[C@H]1O [ATPγS]
[1]; weakly hydrolysable analogue, ssDNA60, 2 mM MgCl2, pH 7.5, 37 °C
  EMSA, nucleotide-dependent RecN-ssDNA complex (CII/CIII) assembly: weakly hydrolysable analogue (ATPγS) present, CII and CIII formation was observed

B1: ssDNA60 (ssDNA)
DNA: CTCCTATTATGCTCAACTTAAATGACCTACTCTATAAAGCTATAGTACTGCTATCTAATC
[2]
  binding result: binds
[3]
  binding result: binds

## CTCCTATTATGCTCA (ssDNA) [ssDNA15]
[4]
  binding result: no binding

B2: dsDNA60 (dsDNA)
DNA 1: CTCCTATTATGCTCAACTTAAATGACCTACTCTATAAAGCTATAGTACTGCTATCTAATC
DNA 2: GATTAGATAGCAGTACTATAGCTTTATAGAGTAGGTCATTTAAGTTGAGCATAATAGGAG
[5]
  binding result: no binding
